Measured values: patent US20180049457A1, “ENZYMATIC SYNTHESIS OF SOLUBLE GLUCAN FIBER” (E I DU PONT DE NEMOURS AND COMPANY, priority 2014, published 2018)

B1: GTF0974T6: T6 C-terminal truncation of GTF0974, SEQ ID NO: 140, strain SG1306 (protein)
chain: INGKQYYVNSDGSVRKNFVFEQDGKSYYFDAETGALATKSQDEFSTEPIKATVDFSSGNQLYKNDDKSLDQLDTFITADAWYRPKSILKDGKTWTASTEADKRPLLMVWWPDKSTQVNYLNYMQNQGLGAGSFSTNSSQESLDQAAKAVQTKIEERIAREGNTNWLRTSIDQFIKTQPGWNSSTENSSYDHLQGGQLLFNNSKGDTGNRTSHANSDYRLLNRTPTNQTGTRKYFKDNSIGGLEFLLANDIDNSNPAVQAEQLNWLHFMMNIGSIMANDPTANFDGLRVDALDNVDADLLQIASDYFKAAYGVDKSEANAIKHLSYLEAWSANDPYYNKDTKGAQLPIDNALRNALTNLLMRDKNTRMQLGDMTAFINSSLNPRGANDKNGERMANYIFTRAHDTEAQTIIQRIIRDRINPNLFGYNFTRDEIKKAFEIYNEDIDKAHKTYASYNLPSVYALMLTNKDSVTRVYYGDLYREDGHYMAKKTPYFDAIDTLLRARIKYVAGGQDMEVKKVGNDGLLTSVRYGKGANNRTDLGTSETRTQGMGVIMTNNYDFRLGSNETVTMNMGRAHRNQLYRPLLLTTKDGIATYLNDSDVPKKLLKRTDWNGNLTFNANDVFGVENVQVSGYLGVWVPYGAKANQDARTQPSNRANSDGQVYKSSAALDSQVMYEAFSNFQAFADDQPELYMNRVLAKNTDLLKAWGITSVGLPPQYVSSKDGTFLDSTIDNGYAFDDRYDMALSQNNKYGSLEDLLNVLRALHKDGIQAIADWVPDQIYNLPGKEVVNATRVNGYGNHQVGYQIIDQAYVANTRTDGTDYQGKYGGAFLDELKAKYPSIFNRVQISNGKQLPTNEKITKWSAKYFNGTNILGRGINYVLRDDKTNQYFNTSANSQLLPTPLRDTGAITSTQVFQRRGQDVYFLRDNQAVKNEFVQDGNGNWYYFGGDGKMTKGAQNINNKDYYFFDNGIQLRNALRRASNGYTYYYGLDGAMVKNAFVDFDDKHKQVRAFTTQG
modifications: T6 C-terminal truncation of GTF0974
B2: GTF0459nativeNT: truncated Streptococcus sp. C150 Gtf-S glucosyltransferase, SEQ ID NO: 19, strain SG1273 (protein, listed as Streptococcus sp.)
chain: MINGKQYYVNSDGSVRKNFVFEQDGKSYYFDAETGALATKSQDEFSTEPIKAAVDFSSGNQLYKNDNKSLDQLDTFITADAWYRPKSILKDGKTWTASTEADKRPLLMVWWPDKSTQVNYLNYMQNQGLGAGSFSTNSSQESLNLAAKAVQTKIEERIAREGNTNWLRTSIDQFIKTQPGWNSSTENSSYDHLQGGQLLFNNSKGDTGNRTSYANSDYRLLNRTPTNQSGTRKYFKDNSIGGLEFLLANDIDNSNPAVQAEQLNWLHFMMNIGSIMANDPTANFDGLRVDALDNVDADLLQIASDYFKAVYGVDKSEANAIKHLSYLEAWSANDPYYNKDTKGAQLPIDNALRNALTNLLMRDKNTRMQLGDMTAFMNSSLNPRGANDKNGERMANYIFTRAHDTEAQTIIQRIIRDRINPNLFGYNFTRDEIKKAFEIYNADINTAHKTYASYNLPSVYALMLTNKDSVTRVYYGDLYREDGHYMAKKTPYFDAIDTLLRARIKYVAGGQDMEVKKVGNDGLLTSVRYGKGANNSTDWGTTETRTQGMGVILTNNYDFRLGSNETVTMNMGRAHRNQLYRPLLLTTKDGLATYLNDSDVPSNLLKRTDWNGNLTFNANDVFGVENVQVSGYLGVWVPVGAKANQDARTQPSNRANSDGQVYKSSAALDSQVMYEAFSNFQAFADDQPELYMNRVLAKNTDLLKAWGVTSVGLPPQYVSSKDGTFLDSTIDNGYAFDDRYDMALSQNNKYGSLEDLLNVLRALHKDGIQAIADWVPDQIYNLPGKEVVNATRVNGYGYHQQGYQIVDQAYVANTRTDGTDYQGRYGGAFLDELKAKYPSIFNRVQISNGKQLPTNEKITKWSAKYFNGTNILGRGINYVLRDDKTNQYFNTSANGQLLPTPLRDTGAITSTQVFQRRGQDVYFLRDNQVIKNEFVQDGNGNWYYFGADGKMTKGAQNINSKDYYFFDNGVQLRNALRRASNGYTYYYGLDGAMIKNAFVDFDDKHQQVRAFTTQGTMVVGNLHWSGHHFYFDRETGIQAKDRIVRTDDGKLHYYVAQTGDMGRNVFATDSRTGKRYYFDADGNTVTGSRVIDGKTYYFNQDGSVGTAYSNRADSIIFENGKARYITPAGEIGRSIFVYNPATKAWNYFDKEGNRVTGRQYIDGNLYYFKEDGSQVKGAIVEENGIKYYYEPGSGILASGRYLQVGDDQWIYFKHDGSLAIGQVRADGGYLKYFDKNGIQVKGQTIVEDGHTYYYDADSGALVTSSFAEIAPNQWAYFNTEGQALKGKWTINGKEYYFDQNGIQYKGKAVKVGSRYKYYDENDGQPVTNRFAQIEPNVWAYFGADGYAVTGEQVINGQHLYFDQSGRQVKGAYVTVNGQRRYYDANTGEYIPGR
B3: GTF0459NTnativeT6: T6 C-terminal truncation of GTF0459, SEQ ID NO: 134, strain SG1298 (protein)
chain: INGKQYYVNSDGSVRKNFVFEQDGKSYYFDAETGALATKSQDEFSTEPIKAAVDFSSGNQLYKNDNKSLDQLDTFITADAWYRPKSILKDGKTWTASTEADKRPLLMVWWPDKSTQVNYLNYMQNQGLGAGSFSTNSSQESLNLAAKAVQTKIEERIAREGNTNWLRTSIDQFIKTQPGWNSSTENSSYDHLQGGQLLFNNSKGDTGNRTSYANSDYRLLNRTPTNQSGTRKYFKDNSIGGLEFLLANDIDNSNPAVQAEQLNWLHFMMNIGSIMANDPTANFDGLRVDALDNVDADLLQIASDYFKAVYGVDKSEANAIKHLSYLEAWSANDPYYNKDTKGAQLPIDNALRNALTNLLMRDKNTRMQLGDMTAFMNSSLNPRGANDKNGERMANYIFTRAHDTEAQTIIQRIIRDRINPNLFGYNFTRDEIKKAFEIYNADINTAHKTYASYNLPSVYALMLTNKDSVTRVYYGDLYREDGHYMAKKTPYFDAIDTLLRARIKYVAGGQDMEVKKVGNDGLLTSVRYGKGANNSTDWGTTETRTQGMGVILTNNYDFRLGSNETVTMNMGRAHRNQLYRPLLLTTKDGLATYLNDSDVPSNLLKRTDWNGNLTFNANDVFGVENVQVSGYLGVWVPVGAKANQDARTQPSNRANSDGQVYKSSAALDSQVMYEAFSNFQAFADDQPELYMNRVLAKNTDLLKAWGVTSVGLPPQYVSSKDGTFLDSTIDNGYAFDDRYDMALSQNNKYGSLEDLLNVLRALHKDGIQAIADWVPDQIYNLPGKEVVNATRVNGYGYHQQGYQIVDQAYVANTRTDGTDYQGRYGGAFLDELKAKYPSIFNRVQISNGKQLPTNEKITKWSAKYFNGTNILGRGINYVLRDDKTNQYFNTSANGQLLPTPLRDTGAITSTQVFQRRGQDVYFLRDNQVIKNEFVQDGNGNWYYFGADGKMTKGAQNINSKDYYFFDNGVQLRNALRRASNGYTYYYGLDGAMIKNAFVDFDDKHQQVRAFTTQ
modifications: T6 C-terminal truncation of GTF0459
B4: GTF0974T1: T1 C-terminal truncation of GTF0974, SEQ ID NO: 136, strain SG1304 (protein)
chain: INGKQYYVNSDGSVRKNFVFEQDGKSYYFDAETGALATKSQDEFSTEPIKATVDFSSGNQLYKNDDKSLDQLDTFITADAWYRPKSILKDGKTWTASTEADKRPLLMVWWPDKSTQVNYLNYMQNQGLGAGSFSTNSSQESLDQAAKAVQTKIEERIAREGNTNWLRTSIDQFIKTQPGWNSSTENSSYDHLQGGQLLFNNSKGDTGNRTSHANSDYRLLNRTPTNQTGTRKYFKDNSIGGLEFLLANDIDNSNPAVQAEQLNWLHFMMNIGSIMANDPTANFDGLRVDALDNVDADLLQIASDYFKAAYGVDKSEANAIKHLSYLEAWSANDPYYNKDTKGAQLPIDNALRNALTNLLMRDKNTRMQLGDMTAFINSSLNPRGANDKNGERMANYIFTRAHDTEAQTIIQRIIRDRINPNLFGYNFTRDEIKKAFEIYNEDIDKAHKTYASYNLPSVYALMLTNKDSVTRVYYGDLYREDGHYMAKKTPYFDAIDTLLRARIKYVAGGQDMEVKKVGNDGLLTSVRYGKGANNRTDLGTSETRTQGMGVIMTNNYDFRLGSNETVTMNMGRAHRNQLYRPLLLTTKDGIATYLNDSDVPKKLLKRTDWNGNLTFNANDVFGVENVQVSGYLGVWVPYGAKANQDARTQPSNRANSDGQVYKSSAALDSQVMYEAFSNFQAFADDQPELYMNRVLAKNTDLLKAWGITSVGLPPQYVSSKDGTFLDSTIDNGYAFDDRYDMALSQNNKYGSLEDLLNVLRALHKDGIQAIADWVPDQIYNLPGKEVVNATRVNGYGNHQVGYQIIDQAYVANTRTDGTDYQGKYGGAFLDELKAKYPSIFNRVQISNGKQLPTNEKITKWSAKYFNGTNILGRGINYVLRDDKTNQYFNTSANSQLLPTPLRDTGAIT
modifications: T1 C-terminal truncation of GTF0974
B5: GTF0974T2: T2 C-terminal truncation of GTF0974, SEQ ID NO: 138, strain SG1305 (protein)
chain: INGKQYYVNSDGSVRKNFVFEQDGKSYYFDAETGALATKSQDEFSTEPIKATVDFSSGNQLYKNDDKSLDQLDTFITADAWYRPKSILKDGKTWTASTEADKRPLLMVWWPDKSTQVNYLNYMQNQGLGAGSFSTNSSQESLDQAAKAVQTKIEERIAREGNTNWLRTSIDQFIKTQPGWNSSTENSSYDHLQGGQLLFNNSKGDTGNRTSHANSDYRLLNRTPTNQTGTRKYFKDNSIGGLEFLLANDIDNSNPAVQAEQLNWLHFMMNIGSIMANDPTANFDGLRVDALDNVDADLLQIASDYFKAAYGVDKSEANAIKHLSYLEAWSANDPYYNKDTKGAQLPIDNALRNALTNLLMRDKNTRMQLGDMTAFINSSLNPRGANDKNGERMANYIFTRAHDTEAQTIIQRIIRDRINPNLFGYNFTRDEIKKAFEIYNEDIDKAHKTYASYNLPSVYALMLTNKDSVTRVYYGDLYREDGHYMAKKTPYFDAIDTLLRARIKYVAGGQDMEVKKVGNDGLLTSVRYGKGANNRTDLGTSETRTQGMGVIMTNNYDFRLGSNETVTMNMGRAHRNQLYRPLLLTTKDGIATYLNDSDVPKKLLKRTDWNGNLTFNANDVFGVENVQVSGYLGVWVPYGAKANQDARTQPSNRANSDGQVYKSSAALDSQVMYEAFSNFQAFADDQPELYMNRVLAKNTDLLKAWGITSVGLPPQYVSSKDGTFLDSTIDNGYAFDDRYDMALSQNNKYGSLEDLLNVLRALHKDGIQAIADWVPDQIYNLPGKEVVNATRVNGYGNHQVGYQIIDQAYVANTRTDGTDYQGKYGGAFLDELKAKYPSIFNRVQISNGKQLPTNEKITKWSAKYFNGTNILGRGINYVLRDDKTNQYFNTSANSQLLPTPLRDTGAITSTQVFQRRGQDVYFLRDNQAVKNEFVQDGNGNWYYFGGDG
modifications: T2 C-terminal truncation of GTF0974

assay: GTF activity of strains (PAHBAH assay); assay type: biochemical; settings: Experiment Number 1; enzyme expressed in B. subtilis host
Method in brief: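 Glucosyltransferase (GTF) activity of the bacterial strains was measured with the PAHBAH assay. The enzymes tested were truncated GTF variants produced in a Bacillus subtilis expression host. Measurements were split across three separate experiments, and each activity value is reported together with the experiment it came from because results varied slightly between experiments.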

Compared with B1, B2 is lower in “GTF activity of strains: Acitivity” value: 33.7 U/mL for the first, 26.5 U/mL for the second.

First: B3
Second: B4
The “GTF activity of strains: Acitivity” value of the first is higher: 28.5 U/mL for the first, 18.4 U/mL for the second.

With B5 the “GTF activity of strains: Acitivity” value was 7.2 U/mL.

same assay, conditions: Experiment Number 2; enzyme expressed in B. subtilis host

For B2, the “GTF activity of strains: Acitivity” value was 39.4 U/mL.
